The text below walks through data of patent publication US20100062512A1 (CRUCELL HOLLAND B V, published 2010).

The assay concerns the target T1, Factor XI from DEAE treated human plasma (human, UniProt P03951 19-625).
T1 construct: mature; Plasma-derived, not purified when it was loaded on the Protein G column; also called FXI
In words: Protein G column chromatography of 25 ml DEAE treated human plasma. How it is done: Therefore, 25 ml DEAE treated human plasma was subjected to a 1 ml Protein G column, to which IgG's selectively bound while more than 99% of the loaded Factor XI appeared in the flowthrough. Thus, a biological fluid containing Factor XI and depleted of IgG's was obtained.

T1 sequence (P03951 19-625 limits assumed): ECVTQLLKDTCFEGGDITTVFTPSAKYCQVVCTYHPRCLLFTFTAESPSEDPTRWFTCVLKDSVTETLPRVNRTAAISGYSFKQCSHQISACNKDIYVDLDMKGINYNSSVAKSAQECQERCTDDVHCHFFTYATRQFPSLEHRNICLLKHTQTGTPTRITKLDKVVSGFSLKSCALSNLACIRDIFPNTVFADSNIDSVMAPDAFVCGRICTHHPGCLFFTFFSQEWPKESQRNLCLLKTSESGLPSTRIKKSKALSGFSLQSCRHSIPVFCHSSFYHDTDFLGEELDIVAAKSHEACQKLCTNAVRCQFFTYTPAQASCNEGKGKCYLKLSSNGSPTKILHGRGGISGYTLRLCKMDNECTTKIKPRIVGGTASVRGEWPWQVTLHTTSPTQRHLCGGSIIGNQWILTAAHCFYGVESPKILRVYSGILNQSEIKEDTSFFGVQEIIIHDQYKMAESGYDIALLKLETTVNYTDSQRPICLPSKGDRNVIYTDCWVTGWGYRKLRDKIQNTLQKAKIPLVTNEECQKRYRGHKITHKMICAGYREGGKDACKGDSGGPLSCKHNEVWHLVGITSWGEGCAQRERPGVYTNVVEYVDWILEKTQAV

B1: Protein G (1 ml Protein G column) (other, UniProt P19909 303-497, looked up)
chain: TYKLILNGKTLKGETTTEAVDAATAEKVFKQYANDNGVDGEWTYDDATKTFTVTEKPEVIDASELTPAVTTYKLVINGKTLKGETTTEAVDAATAEKVFKQYANDNGVDGEWTYDDATKTFTVTEKPEVIDASELTPAVTTYKLVINGKTLKGETTTKAVDAETAEKAFKQYANDNGVDGVWTYDDATKTFTVTE
notes: Immobilised Protein G
As for B1, the binding result is “no binding (tested: more than 99% in flowthrough)”.
